Reference: IntAct's records for PubMed 20627101

B1: Induced myeloid leukemia cell differentiation protein Mcl-1 homolog (Mus musculus), P97287 (parent)
chain: MFGLRRNAVIGLNLYCGGASLGAGGGSPAGARLVAEEAKARREGGGEAALLPGARVVARPPPVGAEDPDVTASAERRLHKSPGLLAVPPEEMAASAAAAIVSPEEELDGCEPEAIGKRPAVLPLLERVSEAAKSSGADGSLPSTPPPPEEEEDDLYRQSLEIISRYLREQATGSKDSKPLGEAGAAGRRALETLRRVGDGVQRNHETAFQGMLRKLDIKNEGDVKSFSRVMVHVFKDGVTNWGRIVTLISFGAFVAKHLKSVNQESFIEPLAETITDVLVRTKRDWLVKQRGWDGFVEFFHVQDLEGGIRNVLLAFAGVAGVGAGLAYLIR

Variants of: B1
Details: with ch60_human HSPD1, P10809
ch60_human HSPD1, P10809, sequence (P10809 whole entry): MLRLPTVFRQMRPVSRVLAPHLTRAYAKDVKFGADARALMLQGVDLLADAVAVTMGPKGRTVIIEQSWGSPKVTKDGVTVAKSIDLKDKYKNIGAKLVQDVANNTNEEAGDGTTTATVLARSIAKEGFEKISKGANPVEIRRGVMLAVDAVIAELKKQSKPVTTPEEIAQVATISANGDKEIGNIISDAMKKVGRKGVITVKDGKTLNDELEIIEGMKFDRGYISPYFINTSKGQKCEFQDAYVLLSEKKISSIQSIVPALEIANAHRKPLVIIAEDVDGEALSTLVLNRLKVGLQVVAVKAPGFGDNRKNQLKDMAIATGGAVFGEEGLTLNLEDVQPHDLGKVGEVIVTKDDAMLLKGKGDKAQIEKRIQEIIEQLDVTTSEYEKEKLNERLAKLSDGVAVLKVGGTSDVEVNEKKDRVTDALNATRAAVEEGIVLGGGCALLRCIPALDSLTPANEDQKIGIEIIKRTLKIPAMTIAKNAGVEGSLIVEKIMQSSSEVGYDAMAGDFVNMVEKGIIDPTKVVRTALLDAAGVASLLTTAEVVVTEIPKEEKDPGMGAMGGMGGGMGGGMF

Effect of a mutation on the interaction, disrupting interaction:
MFGLRGNAVIGLNLYCGGASLGAGGGSPAGARLVAEEAKARREGGGEAALLPGARVVARPPPVGAEDPDVTASAERRLHKSPGLLAVPPEEMAASAAAAIVSPEEELDGCEPEAIGKRPAVLPLLERVSEAAKSSGADGSLPSTPPPPEEEEDDLYRQSLEIISRYLREQATGSKDSKPLGEAGAAGRRALETLRRVGDGVQRNHETAFQGMLRKLDIKNEGDVKSFSRVMVHVFKDGVTNWGRIVTLISFGAFVAKHLKSVNQESFIEPLAETITDVLVRTKRDWLVKQRGWDGFVEFFHVQDLEGGIRNVLLAFAGVAGVGAGLAYLIR [R6G]
MFGLGRNAVIGLNLYCGGASLGAGGGSPAGARLVAEEAKARREGGGEAALLPGARVVARPPPVGAEDPDVTASAERRLHKSPGLLAVPPEEMAASAAAAIVSPEEELDGCEPEAIGKRPAVLPLLERVSEAAKSSGADGSLPSTPPPPEEEEDDLYRQSLEIISRYLREQATGSKDSKPLGEAGAAGRRALETLRRVGDGVQRNHETAFQGMLRKLDIKNEGDVKSFSRVMVHVFKDGVTNWGRIVTLISFGAFVAKHLKSVNQESFIEPLAETITDVLVRTKRDWLVKQRGWDGFVEFFHVQDLEGGIRNVLLAFAGVAGVGAGLAYLIR [R5G]
MFGLRRNAVIGLNLYCGGASLGAGGGSPAGAGLVAEEAKARREGGGEAALLPGARVVARPPPVGAEDPDVTASAERRLHKSPGLLAVPPEEMAASAAAAIVSPEEELDGCEPEAIGKRPAVLPLLERVSEAAKSSGADGSLPSTPPPPEEEEDDLYRQSLEIISRYLREQATGSKDSKPLGEAGAAGRRALETLRRVGDGVQRNHETAFQGMLRKLDIKNEGDVKSFSRVMVHVFKDGVTNWGRIVTLISFGAFVAKHLKSVNQESFIEPLAETITDVLVRTKRDWLVKQRGWDGFVEFFHVQDLEGGIRNVLLAFAGVAGVGAGLAYLIR [R32G]
